Experimental data: patent publication US20060292140A1 (published 2006)

Legend:
human α4β7 integrin [1] = target: T1, human α4β7 integrin (human, UniProt P13612 34-1032; P26010 20-798); experiment: flow cytometry on HuT 78 cells, transient COS-7 expression
T1 construct: whole, on cells; also called α4β7 integrin on HuT 78 cells; on RPMI 8866 cells

human α4β7 integrin [2] = target: T1, human α4β7 integrin; experiment: cell-based or functional assay
human α4β7 integrin [3] = target: T1, human α4β7 integrin; experiment: flow cytometry competition on HuT 78 cells; competitor biotinylated LDP-02/3A9/Lot#1 held constant
Procedure: (§1) Unless otherwise indicated, all reagents were diluted in 0.15 M PBS/1.0% FCS/0.1% sodium azide. The varying concentrations for both antibodies ranged in half-log increments from 2.0×10⁻⁶M to 5.0×10⁻¹¹M. After removal of the primary antibodies, the cells were then suspended in 100 μl streptavidin phycoerythrin (Dako Corp., Carpinteria, Calif.) diluted 1:200. After washing in 200 μl PBS, cells were resuspended in 0.5 ml of PBS/1% formalin and refrigerated until analyzed. Samples were analyzed on a FACScan (Becton Dickinson Corp., San Jose, Calif.) using a 488 nm laser to excite phycoerythrin. For each sample, a minimum of 10,000 cells was analyzed and MCF calculated. All samples were performed in duplicate. The IC₅₀ was determined as the concentration of unconjugated antibody producing a 50% reduction in the MCF from the biotinylated homologue antibody.

human α4β7 integrin [4] = target: T1, human α4β7 integrin; experiment: flow cytometry titration of biotinylated antibody on HuT 78 cells, half-maximal mean channel fluorescence
Procedure: Unless otherwise indicated, all reagents were diluted in 0.15 M PBS/1.0% FCS/0.1% sodium azide. […] After washing in 200 μl PBS, cells were resuspended in 0.5 ml of PBS/1% formalin and refrigerated until analyzed. Samples were analyzed on a FACScan (Becton Dickinson Corp., San Jose, Calif.) using a 488 nm laser to excite phycoerythrin. […] All samples were performed in duplicate.

human α4β7 integrin [5] = target: T1, human α4β7 integrin; experiment: flow cytometry competition on HuT 78 cells; competitor biotinylated murine Act-1 held constant; experiment 1, lot 2
Procedure: as §1

human α4β7 integrin [6] = target: T1, human α4β7 integrin; experiment: flow cytometry competition on HuT 78 cells; competitor biotinylated murine Act-1 held constant; experiment 2, lot 2
Procedure: as §1

human α4β7 integrin [7] = target: T1, human α4β7 integrin; experiment: flow cytometry competition on HuT 78 cells; competitor biotinylated murine Act-1 held constant; experiment 3, lot 2
Procedure: as §1

human α4β7 integrin [8] = target: T1, human α4β7 integrin; experiment: flow cytometry competition on HuT 78 cells; competitor biotinylated murine Act-1 held constant; experiment 4, lot 2
Procedure: as §1

human α4β7 integrin [9] = target: T1, human α4β7 integrin; experiment: flow cytometry competition on HuT 78 cells; competitor biotinylated murine Act-1 held constant; experiment 5, lot 2
Procedure: as §1

human α4β7 integrin [10] = target: T1, human α4β7 integrin; experiment: flow cytometry competition on HuT 78 cells; competitor biotinylated murine Act-1 held constant; mean of 5 experiments
Procedure: as §1

binding result (human α4β7 integrin [1])	IC50: concentration which inhibited by 50% the adhesion of RPMI 8866 cells to human MAdCAM-1-Ig chimera (human α4β7 integrin [2]) [µg/mL]	IC50 (human α4β7 integrin [3]) [nM]	EC50 (human α4β7 integrin [4]) [µg/mL]	IC50 (human α4β7 integrin [5]) [nM]	IC50 (human α4β7 integrin [6]) [nM]	IC50 (human α4β7 integrin [7]) [nM]	IC50 (human α4β7 integrin [8]) [nM]	IC50 (human α4β7 integrin [9]) [nM]	IC50 (human α4β7 integrin [10]) [nM]	Binder
binds	–	–	–	–	–	–	–	–	–	derivative of LDP-02 (Fc-mutated) having a mutation in the light chain (MV4) plus a double mutation in the heavy chain (R38K, A40R) (antibody, human IgG1, V domains shown, transient COS-7 expression; also called M4V / R38K, A40R derivative) VH: QVQLVQSGAEVKKPGASVKVSCKGSGYTFTSYWMHWVKQRPGQRLEWIGEIDPSESNTNYNQKFKGRVTLTVDISASTAYMELSSLRSEDTAVYYCARGGYDGWDYAIDYWGQGTLVTVSS VL: DVVVTQSPLSLPVTPGEPASISCRSSQSLAKSYGNTYLSWYLQKPGQSPQLLIYGISNRFSGVPDRFSGSGSGTDFTLKISRVEAEDVGVYYCLQGTHQPYTFGQGTKVEIK
–	0.0018	6.3	0.1	7.57	10.9	6.02	4.91	10.2	7.94	murine Act-1 monoclonal antibody (antibody, mouse IgG1, V domains shown, Mouse IgG1/kappa from the Act-1 hybridoma; also called mouse Act-1; ACT-1 (murine)) VH: QVQLQQPGAELVKPGTSVKLSCKGYGYTFTSYWMHWVKQRPGQGLEWIGEIDPSESNTNYNQKFKGKATLTVDISSSTAYMQLSSLTSEDSAVYYCARGGYDGWDYAIDYWGQGTSVTVSS VL: DVVVTQTPLSLPVSFGDQVSISCRSSQSLAKSYGNTYLSWYLHKPGQSPQLLIYGISNRFSGVPDRFSGSGSGTDFTLKISTIKPEDLGMYYCLQGTHQPYTFGGGTKLEIK
